Measurements published in patent US20090118184A1 (UNIVERSITY OF ROCHESTER, published 2009).

Key:
Test in all cases: cell-based or functional assay
[1] = target: T1, factor VIIIa A1/A3C1C2 dimer, Y1792F (human, UniProt P00451 20-391; P00451 1709-2351)
T1 sequence 1: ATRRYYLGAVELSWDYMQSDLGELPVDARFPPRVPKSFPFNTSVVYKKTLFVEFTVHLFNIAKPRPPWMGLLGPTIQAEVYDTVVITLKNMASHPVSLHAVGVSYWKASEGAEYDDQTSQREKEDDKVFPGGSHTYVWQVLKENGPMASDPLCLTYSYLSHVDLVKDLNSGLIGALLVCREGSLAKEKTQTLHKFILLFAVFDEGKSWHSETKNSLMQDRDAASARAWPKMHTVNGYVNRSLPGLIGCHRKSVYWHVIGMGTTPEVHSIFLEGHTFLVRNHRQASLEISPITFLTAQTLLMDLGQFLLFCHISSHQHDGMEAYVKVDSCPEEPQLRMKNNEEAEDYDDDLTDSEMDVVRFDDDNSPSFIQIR
T1 sequence 2: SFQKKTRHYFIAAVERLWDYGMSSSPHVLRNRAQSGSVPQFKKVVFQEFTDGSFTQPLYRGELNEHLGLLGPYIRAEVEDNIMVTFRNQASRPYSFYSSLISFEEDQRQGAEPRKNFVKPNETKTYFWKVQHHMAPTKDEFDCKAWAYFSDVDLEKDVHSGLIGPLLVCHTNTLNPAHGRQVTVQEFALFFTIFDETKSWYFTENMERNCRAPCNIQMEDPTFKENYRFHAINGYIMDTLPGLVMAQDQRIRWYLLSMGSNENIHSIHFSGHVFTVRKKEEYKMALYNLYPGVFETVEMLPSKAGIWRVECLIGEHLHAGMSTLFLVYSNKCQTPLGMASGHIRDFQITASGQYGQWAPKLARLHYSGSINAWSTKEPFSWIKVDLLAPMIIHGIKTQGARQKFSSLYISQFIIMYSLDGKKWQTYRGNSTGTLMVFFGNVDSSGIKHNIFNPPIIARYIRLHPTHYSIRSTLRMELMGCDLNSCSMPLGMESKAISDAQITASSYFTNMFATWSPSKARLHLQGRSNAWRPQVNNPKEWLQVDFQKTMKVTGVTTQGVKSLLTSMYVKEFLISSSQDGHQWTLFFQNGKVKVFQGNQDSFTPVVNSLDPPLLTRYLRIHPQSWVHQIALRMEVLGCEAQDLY

[2] = target: T2, factor VIIIa A1/A3C1C2 dimer, R1966A (human, UniProt P00451 20-391; P00451 1709-2351)
T2 sequence 1: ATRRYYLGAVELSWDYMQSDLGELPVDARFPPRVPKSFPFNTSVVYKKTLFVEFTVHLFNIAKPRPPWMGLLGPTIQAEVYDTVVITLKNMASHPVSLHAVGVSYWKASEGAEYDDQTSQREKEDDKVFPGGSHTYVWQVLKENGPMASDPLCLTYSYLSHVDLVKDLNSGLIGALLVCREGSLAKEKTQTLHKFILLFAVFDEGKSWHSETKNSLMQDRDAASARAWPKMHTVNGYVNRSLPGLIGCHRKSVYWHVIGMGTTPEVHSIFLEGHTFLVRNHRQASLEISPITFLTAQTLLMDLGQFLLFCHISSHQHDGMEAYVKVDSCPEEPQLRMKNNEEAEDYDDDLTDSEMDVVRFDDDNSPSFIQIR
T2 sequence 2: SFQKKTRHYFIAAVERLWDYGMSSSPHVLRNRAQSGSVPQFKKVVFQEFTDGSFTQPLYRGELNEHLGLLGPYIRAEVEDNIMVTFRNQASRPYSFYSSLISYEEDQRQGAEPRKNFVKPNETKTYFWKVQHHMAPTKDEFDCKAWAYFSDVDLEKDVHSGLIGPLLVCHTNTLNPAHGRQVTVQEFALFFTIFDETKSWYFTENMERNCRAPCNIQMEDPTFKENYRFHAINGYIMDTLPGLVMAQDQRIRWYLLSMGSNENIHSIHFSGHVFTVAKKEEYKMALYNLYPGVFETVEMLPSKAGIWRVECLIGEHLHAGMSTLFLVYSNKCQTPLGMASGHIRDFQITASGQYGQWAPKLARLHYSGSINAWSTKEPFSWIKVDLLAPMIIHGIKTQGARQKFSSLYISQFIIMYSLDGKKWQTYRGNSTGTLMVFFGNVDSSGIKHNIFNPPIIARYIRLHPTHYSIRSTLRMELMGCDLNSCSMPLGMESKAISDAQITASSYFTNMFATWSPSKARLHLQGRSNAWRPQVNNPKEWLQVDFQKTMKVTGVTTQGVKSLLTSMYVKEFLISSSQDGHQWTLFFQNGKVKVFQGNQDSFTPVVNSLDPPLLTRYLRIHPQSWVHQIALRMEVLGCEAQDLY

[3] = target: T3, factor VIIIa A1/A3C1C2 dimer, wild type (human, UniProt P00451 20-391; P00451 1709-2351)
T3 sequence 1: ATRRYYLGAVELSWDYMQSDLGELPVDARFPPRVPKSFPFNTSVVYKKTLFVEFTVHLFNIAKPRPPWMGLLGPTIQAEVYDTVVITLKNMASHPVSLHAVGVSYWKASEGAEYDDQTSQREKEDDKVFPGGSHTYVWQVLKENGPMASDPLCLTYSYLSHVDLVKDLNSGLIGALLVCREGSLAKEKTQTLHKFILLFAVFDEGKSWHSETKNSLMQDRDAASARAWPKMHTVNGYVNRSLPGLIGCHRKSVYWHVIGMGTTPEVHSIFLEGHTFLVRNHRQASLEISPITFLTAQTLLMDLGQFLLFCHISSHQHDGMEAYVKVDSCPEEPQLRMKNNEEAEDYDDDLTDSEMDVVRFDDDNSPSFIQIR
T3 sequence 2: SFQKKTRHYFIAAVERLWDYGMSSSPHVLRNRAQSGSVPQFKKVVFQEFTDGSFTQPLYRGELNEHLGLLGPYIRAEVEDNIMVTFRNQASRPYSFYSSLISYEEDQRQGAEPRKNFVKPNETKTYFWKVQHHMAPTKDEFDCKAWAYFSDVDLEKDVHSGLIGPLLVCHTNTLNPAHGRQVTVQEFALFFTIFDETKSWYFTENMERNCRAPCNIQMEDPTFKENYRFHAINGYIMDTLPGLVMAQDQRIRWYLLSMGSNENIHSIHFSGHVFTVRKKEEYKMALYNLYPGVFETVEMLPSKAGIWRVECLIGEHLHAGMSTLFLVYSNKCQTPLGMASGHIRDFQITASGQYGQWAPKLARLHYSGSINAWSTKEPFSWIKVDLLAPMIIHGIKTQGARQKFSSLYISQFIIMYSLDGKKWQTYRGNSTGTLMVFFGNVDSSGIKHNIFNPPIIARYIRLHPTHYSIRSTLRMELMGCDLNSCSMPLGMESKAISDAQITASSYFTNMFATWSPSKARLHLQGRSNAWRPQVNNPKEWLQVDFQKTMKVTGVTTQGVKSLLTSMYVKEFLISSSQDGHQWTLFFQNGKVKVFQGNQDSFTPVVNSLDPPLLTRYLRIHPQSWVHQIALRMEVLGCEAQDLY

[4] = target: T4, factor VIIIa A1/A3C1C2 dimer, D302A (human, UniProt P00451 20-391; P00451 1709-2351)
T4 chain 1: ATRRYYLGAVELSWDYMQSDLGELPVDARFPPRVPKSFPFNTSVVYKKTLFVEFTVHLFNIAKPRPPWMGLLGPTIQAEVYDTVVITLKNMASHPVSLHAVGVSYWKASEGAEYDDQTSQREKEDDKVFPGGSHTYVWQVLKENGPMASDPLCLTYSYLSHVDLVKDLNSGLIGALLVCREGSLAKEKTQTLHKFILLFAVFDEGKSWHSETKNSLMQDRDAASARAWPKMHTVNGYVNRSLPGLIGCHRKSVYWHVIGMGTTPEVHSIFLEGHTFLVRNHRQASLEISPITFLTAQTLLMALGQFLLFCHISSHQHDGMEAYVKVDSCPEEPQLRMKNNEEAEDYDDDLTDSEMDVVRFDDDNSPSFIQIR
T4 chain 2: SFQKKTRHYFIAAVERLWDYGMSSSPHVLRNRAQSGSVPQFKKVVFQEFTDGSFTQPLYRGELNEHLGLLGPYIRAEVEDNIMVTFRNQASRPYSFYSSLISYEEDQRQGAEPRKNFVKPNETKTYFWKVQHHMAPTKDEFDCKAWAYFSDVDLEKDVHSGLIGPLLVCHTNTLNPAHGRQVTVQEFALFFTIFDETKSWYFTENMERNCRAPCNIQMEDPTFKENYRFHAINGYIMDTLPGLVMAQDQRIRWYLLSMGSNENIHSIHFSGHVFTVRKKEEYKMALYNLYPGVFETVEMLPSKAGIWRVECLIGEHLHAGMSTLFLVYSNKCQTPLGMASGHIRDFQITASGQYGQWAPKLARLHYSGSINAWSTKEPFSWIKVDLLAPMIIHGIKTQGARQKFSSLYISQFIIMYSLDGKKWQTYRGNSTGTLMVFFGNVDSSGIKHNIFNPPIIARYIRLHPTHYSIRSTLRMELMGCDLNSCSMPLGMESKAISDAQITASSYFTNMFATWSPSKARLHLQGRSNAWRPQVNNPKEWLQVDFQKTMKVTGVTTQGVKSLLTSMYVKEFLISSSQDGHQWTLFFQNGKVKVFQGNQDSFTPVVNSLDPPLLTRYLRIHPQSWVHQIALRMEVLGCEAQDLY

Factor VIIIa decay rate relative to wild type, FIXa (+) [1]: 38.4 relative to wild type | Factor VIIIa decay rate relative to wild type, FIXa (-) [1]: 11.5 relative to wild type | Factor VIIIa decay rate, FIXa (+) [1]: 0.433 min⁻¹ | Factor VIIIa decay rate, FIXa (-) [1]: 0.724 min⁻¹ | Factor VIIIa decay rate relative to wild type, FIXa (+) [2]: 1.44 relative to wild type | Factor VIIIa decay rate, FIXa (+) [2]: 0.0163 min⁻¹ | Factor VIIIa decay rate relative to wild type, FIXa (+) [3]: 1 relative to wild type | Factor VIIIa decay rate relative to wild type, FIXa (-) [3]: 1 relative to wild type | Factor VIIIa decay rate, FIXa (+) [3]: 0.0113 min⁻¹ | Factor VIIIa decay rate, FIXa (-) [3]: 0.0631 min⁻¹ | Factor VIIIa decay rate relative to wild type, FIXa (+) [4]: 0.43 relative to wild type | Factor VIIIa decay rate, FIXa (+) [4]: 0.0049 min⁻¹
B1: factor VIIIa A2 subunit, wild type (other)
chain: SVAKKHPKTWVHYIAAEEEDWDYAPLVLAPDDRSYKSQYLNNGPQRIGRKYKKVRFMAYTDETFKTREAIQHESGILGPLLYGEVGDTLLIIFKNQASRPYNIYPHGITDVRPLYSRRLPKGVKHLKDFPILPGEIFKYKWTVTVEDGPTKSDPRCLTRYYSSFVNMERDLASGLIGPLLICYKESVDQRGNQIMSDKRNVILFSVFDENRSWYLTENIQRFLPNPAGVQLEDPEFQASNIMHSINGYVFDSLQLSVCLHEVAYWYILSIGAQTDFLSVFFSGYTFKHKMVYEDTLTLFPFSGETVFMSMENPGLWILGCHNSDFRNRGMTALLKVSSCDKNTGDYYEDSYEDISAYLLSKNNAIEPR
